Test results: US8703698B2, “Compositions and methods for treating atherosclerosis” (The University of Chicago, priority 2003, dated 2014)

Assays:
J774 macrophages = experiment: Cholesterol efflux from cholesterol-laden J774 macrophages to apolipoprotein liposomes with 8-bromo-cAMP or methyl-β-cyclodextrin; format: cell-based, mouse
Description: The export process of cholesterol is coupled to the ATP binding cassette transporter (ABCA1) pathway. Lipid efflux to apolipoproteins has been shown previously to be stimulated by treatment of murine macrophages with cAMP analogues (Lin et al. 2002 Biochem Biophys Res. Commun. 290:663-669; Oram et al. 2000 J. Biol. Chem. 275:34508-34511). Also, the expression of ABCA1 is induced by cAMP treatment (Lin et al. 2002 Biochem Biophys Res. Commun. 290:663-669; Oram et al. 2000 J. Biol. Chem. 275:34508-34511). The inventors herein examined the effect of 8-bromo-cAMP (0.3 mM) on cholesterol efflux by liposomes containing various apolipoproteins when incubated with cholesterol-laden J774 macrophages. Such cells were pre-labeled with [^3H]-cholesterol in the presence of Sandoz 58-035, an ACAT inhibitor, to ensure that all of the radiolabeled cholesterol released from the cells was derived from the un-esterified cholesterol pool, and the cells were treated for 12 hours with 8-bromo-cAMP. This was followed by incubation with various acceptors. The fractional release of cellular labeled cholesterol was determined as a function of time.
To investigate whether an apolipoprotein free cholesterol acceptor such as cyclodextrin has the ability to catalyze the removal of cholesterol from macrophages, cholesterol-loaded and labeled J774 cells were incubated with liposomes and methyl-β-cyclodextrin (0.1 mM) (CD).
To examine whether cholesterol export from J774 cells to medium containing liposomes containing 2 μM murine apoA-1, SAA1.1 or SAA2.1 is a cAMP-dependent process, the radio-labeled cholesterol-laden cells were incubated overnight with 8-Br-cAMP (0.3 mM), prior to the addition of liposomes containing 2 μM murine apoA-1, SAA1.1 or SAA2.1 to the culture medium. Cholesterol efflux to the medium was then determined at the indicated time points as described above. Efflux of radioactive label to the medium was calculated as a percentage of total counts in each well.

[1] = biological target: T1, acyl CoA:cholesterol acyl transferase (Mus musculus, UniProt Q61263); experiment: ACAT activity in macrophage post-nuclear homogenates; format: biochemical, murine; details: macrophage post-nuclear homogenates as enzyme source
T1 construct: host or cells: J774 mouse macrophages, cholesterol-loaded
T1 sequence (Q61263 1-540): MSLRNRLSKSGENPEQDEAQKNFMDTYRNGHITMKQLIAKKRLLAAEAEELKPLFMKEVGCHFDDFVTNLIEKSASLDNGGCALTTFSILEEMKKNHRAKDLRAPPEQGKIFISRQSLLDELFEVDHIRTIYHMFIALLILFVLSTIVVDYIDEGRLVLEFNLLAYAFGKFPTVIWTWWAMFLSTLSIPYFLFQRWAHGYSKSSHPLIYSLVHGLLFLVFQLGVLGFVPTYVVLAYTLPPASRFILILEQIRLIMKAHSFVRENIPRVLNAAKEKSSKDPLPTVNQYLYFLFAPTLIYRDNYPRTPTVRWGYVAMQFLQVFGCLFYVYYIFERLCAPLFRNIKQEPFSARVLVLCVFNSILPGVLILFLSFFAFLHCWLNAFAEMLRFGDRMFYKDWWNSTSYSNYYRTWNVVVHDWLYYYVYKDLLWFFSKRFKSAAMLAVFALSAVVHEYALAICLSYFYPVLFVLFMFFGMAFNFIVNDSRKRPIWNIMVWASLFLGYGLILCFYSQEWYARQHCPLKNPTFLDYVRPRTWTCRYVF
Description: The in vitro effects of acute phase-HDL (AP-HDL;HDL-SAA) on acyl CoA:cholesterol acyl transferase and cholesterol ester hydrolase activities and on cellular cholesterol export were studied by the inventors using purified enzymes, cell homogenates, and whole cells. […] In contrast, murine SAA1.1 and apoA-1 had no effect. […] Using macrophages preloaded with radio-labeled cholesterol and injected intravenously into either inflamed or un-inflamed mice, it was shown that the inflamed mice, which have high SAA2.1 levels, effluxed cholesterol more rapidly and to a greater extent (6-fold greater) than their un-inflamed counterparts.

[2] = biological target: T1, acyl CoA:cholesterol acyl transferase; details: intact murine macrophages and post-nuclear homogenates; Ely et al. 2001; cited from earlier work

B1: GFFSFVHEAFQGAGDMWRAYTDMKEANWKNSDKYFHARGNYDAAQRGPGGVWAAEKISD GREAFQEFFGRGHEDTIADQEANRHGRSGKDPNYYRPPGLPDKY (protein, listed as Mus musculis)
chain: GFFSFVHEAFQGAGDMWRAYTDMKEANWKNSDKYFHARGNYDAAQRGPGGVWAAEKISDGREAFQEFFGRGHEDTIADQEANRHGRSGKDPNYYRPPGLPDKY
notes: full length murine serum amyloid A isoform 2.1 purified from acute phase plasma
increase in the initial rate of cholesterol efflux to liposomes after cAMP pre-treatment versus untreated cells (J774 macrophages; 8-bromo-cAMP 0.3 mM, 12 hours, Sandoz 58-035 present): 62.1% | further increase in cholesterol efflux by cAMP pre-treatment (J774 macrophages; cells exposed to liposomes and CD): 45.5% | increase in the initial rate of cholesterol efflux with CD treatment (J774 macrophages; methyl-β-cyclodextrin 0.1 mM plus liposomes): 4 fold | acyl CoA:cholesterol acyl transferase activity [1]: inhibit acyl CoA:cholesterol acyl transferase activity in a dose-dependent manner | macrophage ACAT activity [2]: inhibit macrophage acyl CoA:cholesterol acyl transferase (ACAT) activity
